Measurements reported in PMC8011926 (Journal of Medicinal Chemistry, 2020).
Non-standard residues stand in square brackets, D forms with d. Residues, ends and D or L forms follow the SMILES beside them. No end group written: not given here.

B1: [D-Ala^2]N/OFQ(1–13)-NH2 (peptide)
peptide: F[dA]GFTGARKSARK-NH2
modifications: N-terminus assumed
SMILES: C[C@H](NC(=O)CNC(=O)[C@@H](NC(=O)[C@H](Cc1ccccc1)NC(=O)CNC(=O)[C@@H](C)NC(=O)[C@@H](N)Cc1ccccc1)[C@@H](C)O)C(=O)N[C@@H](CCCNC(=N)N)C(=O)N[C@@H](CCCCN)C(=O)N[C@@H](CO)C(=O)N[C@@H](C)C(=O)N[C@@H](CCCNC(=N)N)C(=O)N[C@@H](CCCCN)C(N)=O

Each molecule was assayed against N/OFQ peptide (NOP) receptor fused to Renilla luciferase (UniProt P41146).
N/OFQ peptide (NOP) receptor fused to Renilla luciferase, sequence (P41146 whole entry, the tested form may be a part): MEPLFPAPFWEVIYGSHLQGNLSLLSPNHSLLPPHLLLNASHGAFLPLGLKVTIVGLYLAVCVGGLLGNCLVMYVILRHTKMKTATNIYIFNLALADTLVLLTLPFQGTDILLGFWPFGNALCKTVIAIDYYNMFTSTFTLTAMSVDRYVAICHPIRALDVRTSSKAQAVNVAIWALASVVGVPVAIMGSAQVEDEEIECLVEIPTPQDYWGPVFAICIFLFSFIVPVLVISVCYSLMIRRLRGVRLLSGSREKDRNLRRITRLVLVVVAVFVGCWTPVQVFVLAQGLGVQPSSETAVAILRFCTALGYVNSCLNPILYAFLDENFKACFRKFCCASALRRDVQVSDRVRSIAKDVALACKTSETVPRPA
With [AC3C^7]N/OFQ-NH2 (peptide) the pEC50 for promoting the NOP/G protein interaction (BRET, membranes with NOP-RLuc and Gβ1-RGFP) was 7.67 -log10 M and the pEC50 for promoting the NOP/β-arrestin 2 interaction (BRET, cells with NOP-RLuc and β-arrestin 2-RGFP) was 7.56 -log10 M.
[AC5C^7]N/OFQ-NH2 (peptide) was tested, and the pEC50 for promoting the NOP/G protein interaction (BRET, membranes with NOP-RLuc and Gβ1-RGFP) was 8.1 -log10 M and the pEC50 for promoting the NOP/β-arrestin 2 interaction (BRET, cells with NOP-RLuc and β-arrestin 2-RGFP) was 8.1 -log10 M.
For [AC5C^11]N/OFQ-NH2 (peptide), the pEC50 for promoting the NOP/G protein interaction (BRET, membranes with NOP-RLuc and Gβ1-RGFP) was 8.61 -log10 M and the pEC50 for promoting the NOP/β-arrestin 2 interaction (BRET, cells with NOP-RLuc and β-arrestin 2-RGFP) was 8.22 -log10 M.
In the case of [Aib^7]N/OFQ-NH2 (peptide), the pEC50 for promoting the NOP/G protein interaction (BRET, membranes with NOP-RLuc and Gβ1-RGFP) is reported as 8.92 -log10 M and the pEC50 for promoting the NOP/β-arrestin 2 interaction (BRET, cells with NOP-RLuc and β-arrestin 2-RGFP) is reported as 8.4 -log10 M.
In the case of [Aib^11]N/OFQ-NH2 (peptide), the pEC50 for promoting the NOP/G protein interaction (BRET, membranes with NOP-RLuc and Gβ1-RGFP) is reported as 8.35 -log10 M and the pEC50 for promoting the NOP/β-arrestin 2 interaction (BRET, cells with NOP-RLuc and β-arrestin 2-RGFP) is reported as 8.21 -log10 M.

Biological target: N/OFQ peptide (NOP) receptor fused to Renilla luciferase (UniProt P41146)
Remark: another data set of the same source
[Cha^1]N/OFQ(1–13)-NH2 (peptide) was tested, and the pEC50 for promoting the NOP/G protein interaction (BRET, membranes with NOP-RLuc and Gβ1-RGFP) was 8.93 -log10 M and the pEC50 for promoting the NOP/β-arrestin 2 interaction (BRET, cells with NOP-RLuc and β-arrestin 2-RGFP) was 8.28 -log10 M.
In the case of FGGFNGARKSARK-NH2 [[Asn^5]N/OFQ(1–13)-NH2], the pEC50 for promoting the NOP/G protein interaction (BRET, membranes with NOP-RLuc and Gβ1-RGFP) is reported as 8.03 -log10 M and the pEC50 for promoting the NOP/β-arrestin 2 interaction (BRET, cells with NOP-RLuc and β-arrestin 2-RGFP) is reported as 7.56 -log10 M.
FGGFVGARKSARK-NH2 [[Val^5]N/OFQ(1–13)-NH2] was tested, and the pEC50 for promoting the NOP/G protein interaction (BRET, membranes with NOP-RLuc and Gβ1-RGFP) was 7.94 -log10 M and the pEC50 for promoting the NOP/β-arrestin 2 interaction (BRET, cells with NOP-RLuc and β-arrestin 2-RGFP) was 7.38 -log10 M.
B1 was tested, and the pEC50 for promoting the NOP/G protein interaction (BRET, membranes with NOP-RLuc and Gβ1-RGFP) was 7.57 -log10 M and the pEC50 for promoting the NOP/β-arrestin 2 interaction (BRET, cells with NOP-RLuc and β-arrestin 2-RGFP) was 7.16 -log10 M.
With FGGWTGARKSARK-NH2 [[Trp^4]N/OFQ(1–13)-NH2] the pEC50 for promoting the NOP/G protein interaction (BRET, membranes with NOP-RLuc and Gβ1-RGFP) was 7.63 -log10 M and the pEC50 for promoting the NOP/β-arrestin 2 interaction (BRET, cells with NOP-RLuc and β-arrestin 2-RGFP) was 7.17 -log10 M.

Biological target: N/OFQ peptide (NOP) receptor fused to Renilla luciferase (UniProt P41146)
Remark: another data set of the same source
FGGATGARKSARK-NH2 [[Ala^4]N/OFQ(1–13)-NH2] was tested, and the concentration ratio (EC50 of the ligand / EC50 of N/OFQ(1–13)-NH2) for promoting the NOP/G protein interaction (BRET, membranes); concentration–response curve incomplete was 1000.
FGAFTGARKSARK-NH2 [[Ala^3]N/OFQ(1–13)-NH2] was tested, and the pEC50 for promoting the NOP/G protein interaction (BRET, membranes with NOP-RLuc and Gβ1-RGFP) was 7.88 -log10 M and the pEC50 for promoting the NOP/β-arrestin 2 interaction (BRET, cells with NOP-RLuc and β-arrestin 2-RGFP) was 7.54 -log10 M.

The molecules below were run against T1, mu opioid receptor (mu-RLuc/Gβ1-RGFP) (Homo sapiens, UniProt P35372).
T1 construct: expressed in transfected cells; host or cells: SH-SY5Y (enriched plasma membranes)
T1 sequence (P35372 whole entry, species assumed): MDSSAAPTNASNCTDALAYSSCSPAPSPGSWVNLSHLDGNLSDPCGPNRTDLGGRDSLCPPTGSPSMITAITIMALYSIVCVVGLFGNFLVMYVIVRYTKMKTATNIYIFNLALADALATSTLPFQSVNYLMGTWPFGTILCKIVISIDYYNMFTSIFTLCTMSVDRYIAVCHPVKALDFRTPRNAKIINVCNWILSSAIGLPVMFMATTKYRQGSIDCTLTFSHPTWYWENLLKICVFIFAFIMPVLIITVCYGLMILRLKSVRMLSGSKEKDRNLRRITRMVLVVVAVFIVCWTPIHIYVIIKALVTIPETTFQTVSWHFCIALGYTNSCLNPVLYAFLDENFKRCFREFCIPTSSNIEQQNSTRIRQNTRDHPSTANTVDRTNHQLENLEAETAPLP
Format: biochemical
Method: For this study, human embryonic kidney (HEK293) cells, permanently co-expressing the different pairs of fusion proteins NOP-RLuc/Gβ1-RGFP and NOP-RLuc/β-arrestin 2-RGFP, and SH-SY5Y cells stably, co-expressing the different pairs of fusion proteins mu-RLuc/Gβ1-RGFP and mu-RLuc/β-arrestin 2-RGFP or delta-RLuc/Gβ1-RGFP and delta-RLuc/β-arrestin 2-RGFP, were used. Cells were prepared and cultured, as described previously.[19],[23] […] The protein concentration in membrane preparations was determined using the QPRO-BCA kit (Cyanagen Srl, Bologna, IT) and the Ensight (PerkinElmer, Waltham, USA) in the spectrophotometer mode.
Luminescence in membranes was recorded in 96-well untreated white opaque microplates, while in whole cells, it was recorded in 96-well sterile poly-D-lysine-coated white opaque microplates (PerkinElmer, Waltham, MA, USA) using the luminometer Victor 2030 (PerkinElmer, Waltham, MA, USA). […] Coelenterazine at a final concentration of 5 μM was injected 15 min prior to reading the cell plate. Different concentrations of ligands in 20 μL of PBS–BSA 0.01% were added and incubated 5 min before reading luminescence. […] The BRET ratio was measured 15 min after agonist injection. […]
The pharmacological terminology adopted in this paper is consistent with IUPHAR recommendations.[68] All data are expressed as the mean ± sem of five independent experiments made in duplicate. […]
In the case of `CSCC[C@H](NC(=O)[C@H](CC(C)C)NC(=O)[C@H](Cc1c[nH]cn1)NC(=O)[C@H](Cc1ccccc1)NC(=O)[C@@H](CCSC)NC(=O)[C@@H](N)Cc1ccc(O)cc1)C(=O)N[C@@H](CC(=O)O)C(N)=O` [Deltorphin A] (H-Y[dM]FHLMD-NH2), the “mu/G protein pEC50 (CL95%)” value is reported as “crc incomplete”.
